According to FireProtDB (doi:10.1016/s0014-5793(99)01395-2):

Details: Escherichia phage lambda, pH 7, Thermal, Fluorescence, phosphate buffer 100 mM, reversible: yes, whole UniProt chain shown

B1: Endolysin wild type, P03706 (protein)
chain: MVEINNQRKAFLDMLAWSEGTDNGRQKTRNHGYDVIVGGELFTDYSDHPRKLVTLNPKLKSTGAGRYQLLSRWWDAYRKQLGLKDFSPKSQDAVALQQIKERGALPMIDRGDIRQAIDRCSNIWASLPGAGYGQFEHKADSLIAKFKEAGGTVREIDV
In the case of B1, the unfolding free energy (25 °C) is reported as 7.1 kcal/mol, the Tm is reported as 52.3 °C and the “unfolding enthalpy (van 't Hoff)” value is reported as 113 kcal/mol.
